± gives the standard deviation of the averaged measurements.
Assay: total protein half-life in vivo (active degradation + dilution); higher = more stable protein
[1] = E. coli NCM3722 delta-clpP delta-lon delta-hslV, growth: N-lim chemostat, doubling time 6 h
[2] = E. coli NCM3722 delta-clpP, growth: N-lim chemostat, doubling time 6 h
[3] = E. coli NCM3722 delta-hslV, growth: N-lim chemostat, doubling time 6 h
[4] = E. coli NCM3722 delta-lon, growth: N-lim chemostat, doubling time 6 h
[5] = E. coli NCM3722 delta-smpB, growth: N-lim chemostat, doubling time 6 h
[6] = wild type E. coli NCM3722, growth: C-lim chemostat, doubling time 3 h
[7] = wild type E. coli NCM3722, growth: C-lim chemostat, doubling time 6 h
[8] = wild type E. coli NCM3722, growth: C-lim chemostat, doubling time 12 h
[9] = wild type E. coli NCM3722, growth: N-lim chemostat, doubling time 6 h
[10] = wild type E. coli NCM3722, growth: N-lim chemostat, doubling time 12 h
[11] = wild type E. coli NCM3722, growth: P-lim chemostat, doubling time 6 h
[12] = wild type E. coli NCM3722, growth: P-lim chemostat, doubling time 12 h

Sequence	total protein half-life in vivo [1] [h]	total protein half-life in vivo [2] [h]	total protein half-life in vivo [3] [h]	total protein half-life in vivo [4] [h]	total protein half-life in vivo [5] [h]	total protein half-life in vivo [6] [h]	total protein half-life in vivo [7] [h]	total protein half-life in vivo [8] [h]	total protein half-life in vivo [9] [h]	total protein half-life in vivo [10] [h]	total protein half-life in vivo [11] [h]	total protein half-life in vivo [12] [h]
MAKTLYEKLFDAHVVYEAENETPLLYIDRHLVHEVTSPQAFDGLRAHGRPVRQPGKTFATMDHNVSTQTKDINACGEMARIQMQELIKNCKEFGVELYDLNHPYQGIVHVMGPEQGVTLPGMTIVCGDSHTATHGAFGALAFGIGTSEVEHVLATQTLKQGRAKTMKIEVQGKAAPGITAKDIVLAIIGKTGSAGGTGHVVEFCGEAIRDLSMEGRMTLCNMAIEMGAKAGLVAPDETTFNYVKGRLHAPKGKDFDDAVAYWKTLQTDEGATFDTVVTLQAEEISPQVTWGTNPGQVISVNDNIPDPASFADPVERASAEKALAYMGLKPGIPLTEVAIDKVFIGSCTNSRIEDLRAAAEIAKGRKVAPGVQALVVPGSGPVKAQAEAEGLDKIFIEAGFEWRLPGCSMCLAMNNDRLNPGERCASTSNRNFEGRQGRGGRTHLVSPAMAAAAAVTGHFADIRNIK [P0A6A6]	4.76 ± 0.36	1.53 ± 0.022	2.72 ± 0.34	3.63 ± 0.16	2.28 ± 0.034	1.877 ± 0.017	3.17 ± 0.04	3.71 ± 0.57	2.9 ± 0.39	3.91 ± 0.068	2.32 ± 0.4	5.41 ± 0.32
MAKVLVLYYSMYGHIETMARAVAEGASKVDGAEVVVKRVPETMPPQLFEKAGGKTQTAPVATPQELADYDAIIFGTPTRFGNMSGQMRTFLDQTGGLWASGALYGKLASVFSSTGTGGGQEQTITSTWTTLAHHGMVIVPIGYAAQELFDVSQVRGGTPYGATTIAGGDGSRQPSQEELSIARYQGEYVAGLAVKLNG [P0A8G6]	5.48 ± 0.11	5.53 ± 0.88	5.48 ± 0.15	5.7 ± 0.49	4.89 ± 0.052	3.227 ± 0.018	5.98 ± 0.084	11.1 ± 1.1	5.31 ± 0.38	9.99 ± 1.1	5.69 ± 0.29	11.7 ± 0.32
MAKVSLEKDKIKFLLVEGVHQKALESLRAAGYTNIEFHKGALDDEQLKESIRDAHFIGLRSRTHLTEDVINAAEKLVAIGCFCIGTNQVDLDAAAKRGIPVFNAPFSNTRSVAELVIGELLLLLRGVPEANAKAHRGVWNKLAAGSFEARGKKLGIIGYGHIGTQLGILAESLGMYVYFYDIENKLPLGNATQVQHLSDLLNMSDVVSLHVPENPSTKNMMGAKEISLMKPGSLLINASRGTVVDIPALCDALASKHLAGAAIDVFPTEPATNSDPFTSPLCEFDNVLLTPHIGGSTQEAQENIGLEVAGKLIKYSDNGSTLSAVNFPEVSLPLHGGRRLMHIHENRPGVLTALNKIFAEQGVNIAAQYLQTSAQMGYVVIDIEADEDVAEKALQAMKAIPGTIRARLLY [P0A9T0]	5.06 ± 0.26	4.512 ± 0.0057	3.75 ± 0.028	4.11 ± 0.16	4.09 ± 0.058	3.09 ± 0.13	5.65 ± 0.34	11.5 ± 1.3	3.94 ± 0.12	5.84 ± 0.19	6.02 ± 0.23	11.8 ± 0.39
MALAMKVISQVEAQRKILEEAVSTALELASGKSDGAEVAVSKTTGISVSTRYGEVENVEFNSDGALGITVYHQNRKGSASSTDLSPQAIARTVQAALDIARYTSPDPCAGVADKELLAFDAPDLDLFHPAEVSPDEAIELAARAEQAALQADKRITNTEGGSFNSHYGVKVFGNSHGMLQGYCSTRHSLSSCVIAEENGDMERDYAYTIGRAMSDLQTPEWVGADCARRTLSRLSPRKLSTMKAPVIFANEVATGLFGHLVGAIAGGSVYRKSTFLLDSLGKQILPDWLTIEEHPHLLKGLASTPFDSEGVRTERRDIIKDGILTQWLLTSYSARKLGLKSTGHAGGIHNWRIAGQGLSFEQMLKEMGTGLVVTELMGQGVSAITGDYSRGAAGFWVENGEIQYPVSEITIAGNLKDMWRNIVTVGNDIETRSNIQCGSVLLPEMKIAGQ [P0AFK0]	4.58 ± 0.36	4.28 ± 0.05	4.07 ± 0.065	4.34 ± 0.1	4.12 ± 0.032	3.39 ± 0.57	5.59 ± 0.52	9.13 ± 0.67	4.27 ± 0.28	6.45 ± 0.34	5.5 ± 0.28	10.09 ± 0.033
MALIVEFICELPNGVHARPASHVETLCNTFSSQIEWHNLRTDRKGNAKSALALIGTDTLAGDNCQLLISGADEQEAHQRLSQWLRDEFPHCDAPLAEVKSDELEPLPVSLTNLNPQIIRARTVCSGSAGGILTPISSLDLNALGNLPAAKGVDAEQSALENGLTLVLKNIEFRLLDSDGATSAILEAHRSLAGDTSLREHLLAGVSAGLSCAEAIVASANHFCEEFSRSSSSYLQERALDVRDVCFQLLQQIYGEQRFPAPGKLTQPAICMADELTPSQFLELDKNHLKGLLLKSGGTTSHTVILARSFNIPTLVGVDIDALTPWQQQTIYIDGNAGAIVVEPGEAVARYYQQEARVQDALREQQRVWLTQQARTADGIRIEIAANIAHSVEAQAAFGNGAEGVGLFRTEMLYMDRTSAPGESELYNIFCQALESANGRSIIVRTMDIGGDKPVDYLNIPAEANPFLGYRAVRIYEEYASLFTTQLRSILRASAHGSLKIMIPMISSMEEILWVKEKLAEAKQQLRNEHIPFDEKIQLGIMLEVPSVMFIIDQCCEEIDFFSIGSNDLTQYLLAVDRDNAKVTRHYNSLNPAFLRALDYAVQAVHRQGKWIGLCGELGAKGSVLPLLVGLGLDELSMSAPSIPAAKARMAQLDSRECRKLLNQAMACRTSLEVEHLLAQFRMTQQDAPLVTAECITLESDWRSKEEVLKGMTDNLLLAGRCRYPRKLEADLWAREAVFSTGLGFSFAIPHSKSEHIEQSTISVARLQAPVRWGDDEAQFIIMLTLNKHAAGDQHMRIFSRLARRIMHEEFRNALVNAASADAIASLLQHELEL	–	–	–	–	–	2.7	–	7.46	–	–	–	–
MALLQISEPGLSAAPHQRRLAAGIDLGTTNSLVATVRSGQAETLADHEGRHLLPSVVHYQQQGHSVGYDARTNAALDTANTISSVKRLMGRSLADIQQRYPHLPYQFQASENGLPMIETAAGLLNPVRVSADILKALAARATEALAGELDGVVITVPAYFDDAQRQGTKDAARLAGLHVLRLLNEPTAAAIAYGLDSGQEGVIAVYDLGGGTFDISILRLSRGVFEVLATGGDSALGGDDFDHLLADYIREQAGIPDRSDNRVQRELLDAAIAAKIALSDADSVTVNVAGWQGEISREQFNELIAPLVKRTLLACRRALKDAGVEADEVLEVVMVGGSTRVPLVRERVGEFFGRPPLTSIDPDKVVAIGAAIQADILVGNKPDSEMLLLDVIPLSLGLETMGGLVEKVIPRNTTIPVARAQDFTTFKDGQTAMSIHVMQGERELVQDCRSLARFALRGIPALPAGGAHIRVTFQVDADGLLSVTAMEKSTGVEASIQVKPSYGLTDSEIASMIKDSMSYAEQDVKARMLAEQKVEAARVLESLHGALAADAALLSAAERQVIDDAAAHLSEVAQGDDVDAIEQAIKNVDKQTQDFAARRMDQSVRRALKGHSVDEV [P0A6Z1]	5.04 ± 0.78	4.05 ± 0.14	2.65 ± 0.14	3.22 ± 0.24	2.53 ± 0.028	2.7 ± 0.2	4.48 ± 0.47	7.07 ± 1.1	2.857 ± 0.016	3.54 ± 0.12	4.05 ± 0.31	6.96 ± 0.068
MAMETQDIIKRSATNSITPPSQVRDYKAEVAKLIDVSTCIGCKACQVACSEWNDIRDEVGHCVGVYDNPADLSAKSWTVMRFSETEQNGKLEWLIRKDGCMHCEDPGCLKACPSAGAIIQYANGIVDFQSENCIGCGYCIAGCPFNIPRLNKEDNRVYKCTLCVDRVSVGQEPACVKTCPTGAIHFGTKKEMLELAEQRVAKLKARGYEHAGVYNPEGVGGTHVMYVLHHADQPELYHGLPKDPKIDTSVSLWKGALKPLAAAGFIATFAGLIFHYIGIGPNKEVDDDEEDHHE [P0AAJ3]	–	4.35	> 8	–	–	–	–	–	3.95	–	6.22	–
MAMHLNENLDDNGEMHDINVTPFIDVMLVLLIIFMVAAPLATVDVKVNLPASTSTPQPRPEKPVYLSVKADNSMFIGNDPVTDETMITALNALTEGKKDTTIFFRADKTVDYETLMKVMDTLHQAGYLKIGLVGEETAKAK [P0ABV2]	2.68 ± 0.35	2.74 ± 0.56	–	–	0.61	1.34 ± 0.17	0.847 ± 0.64	1.88 ± 0.74	1.12	–	1.01	2.15
MAMYQNMLVVIDPNQDDQPALRRAVYLHQRIGGKIKAFLPIYDFSYEMTTLLSPDERTAMRQGVISQRTAWIHEQAKYYLNAGVPIEIKVVWHNRPFEAIIQEVISGGHDLVLKMAHQHDRLEAVIFTPTDWHLLRKCPSPVWMVKDQPWPEGGKALVAVNLASEEPYHNALNEKLVKETIELAEQVNHTEVHLVGAYPVTPINIAIELPEFDPSVYNDAIRGQHLLAMKALRQKFGINENMTHVEKGLPEEVIPDLAEHLQAGIVVLGTVGRTGISAAFLGNTAEQVIDHLRCDLLVIKPDQYQTPVELDDEEDD [P0AAC0]	4.78 ± 0.088	4.77 ± 0.46	4.73 ± 0.4	5.473 ± 0.017	4.47 ± 0.11	2.97 ± 0.39	5.6 ± 0.071	9.86 ± 0.44	5.01 ± 0.17	8.64 ± 0.4	5.56 ± 0.67	12.2 ± 0.15
MANLSGYNFAYLDEQTKRMIRRAILKAVAIPGYQVPFGGREMPMPYGWGTGGIQLTASVIGESDVLKVIDQGADDTTNAVSIRNFFKRVTGVNTTERTDDATVIQTRHRIPETPLTEDQIIIFQVPIPEPLRFIEPRETETRTMHALEEYGVMQVKLYEDIARFGHIATTYAYPVKVNGRYVMDPSPIPKFDNPKMDMMPALQLFGAGREKRIYAVPPFTRVESLDFDDHPFTVQQWDEPCAICGSTHSYLDEVVLDDAGNRMFVCSDTDYCRQQSEAKNQ	–	–	–	–	–	–	–	–	–	–	0.723 ± 0.41	1.37 ± 0.74
MANNTTGFTRIIKAAGYSWKGLRAAWINEAAFRQEGVAVLLAVVIACWLDVDAITRVLLISSVMLVMIVEILNSAIEAVVDRIGSEYHELSGRAKDMGSAAVLIAIIVAVITWCILLWSHFG [P0ABN1]	6.58 ± 0.097	6.7 ± 1.4	5.79 ± 0.99	6.03 ± 0.49	6.13 ± 0.91	3.24 ± 0.045	6.21 ± 0.12	13.3 ± 2.6	5.93 ± 0.34	13.7 ± 3.1	5.54 ± 0.21	11.3 ± 0.31
MANPEQLEEQREETRLIIEELLEDGSDPDALYTIEHHLSADDLETLEKAAVEAFKLGYEVTDPEELEVEDGDIVICCDILSECALNADLIDAQVEQLMTLAEKFDVEYDGWGTYFEDPNGEDGDDEDFVDEDDDGVRH [P0AF90]	5.62 ± 0.39	4 ± 0.52	3.94 ± 0.18	5.36 ± 0.26	3.73 ± 0.12	2.08	5.51 ± 1.6	8.63 ± 2.2	4.14	7.72 ± 1.9	2.61 ± 0.039	6.57 ± 0.075
MANRMILNETAWFGRGAVGALTDEVKRRGYQKALIVTDKTLVQCGVVAKVTDKMDAAGLAWAIYDGVVPNPTITVVKEGLGVFQNSGADYLIAIGGGSPQDTCKAIGIISNNPEFADVRSLEGLSPTNKPSVPILAIPTTAGTAAEVTINYVITDEEKRRKFVCVDPHDIPQVAFIDADMMDGMPPALKAATGVDALTHAIEGYITRGAWALTDALHIKAIEIIAGALRGSVAGDKDAGEEMALGQYVAGMGFSNVGLGLVHGMAHPLGAFYNTPHGVANAILLPHVMRYNADFTGEKYRDIARVMGVKVEGMSLEEARNAAVEAVFALNRDVGIPPHLRDVGVRKEDIPALAQAALDDVCTGGNPREATLEDIVELYHTAW [P0A9S1]	4.47 ± 0.099	3.35 ± 0.51	3.392 ± 0.0085	4.76 ± 0.29	2.66 ± 0.051	3.02 ± 0.11	5.64 ± 0.23	10.6 ± 0.27	4.48 ± 1	4.94 ± 0.27	5.483 ± 0.014	10.2 ± 0.13
MANWQSIDELQDIASDLPRFIHALDELSRRLGLNITPLTADHISLRCHQNATAERWRRGFEQCGELLSENMINGRPICLFKLHEPVQVAHWQFSIVELPWPGEKRYPHEGWEHIEIVLPGDPETLNARALALLSDEGLSLPGISVKTSSPKGEHERLPNPTLAVTDGKTTIKFHPWSIEEIVASEQSA	5.34 ± 1.4	3.77 ± 0.15	2.73 ± 0.29	3.16 ± 0.24	3.04 ± 0.023	2.231 ± 0.0095	3.62 ± 1.4	5.25 ± 0.3	3.3	3.66	3.83	6.37 ± 1.2

From the supplement of paper PMC11246515
